We go through six sequences from the supplement of paper PMC5998384.

The subject of series [1] is HeLa Kyoto. Put plainly: solubility in G1/S (NP-40 vs SDS abundance) (log2 ratio); higher = more soluble. The settings on record: cell cycle stage: G1/S.
For series [2], the system named is HeLa Kyoto. Put plainly: solubility change mitosis vs G1/S (difference of NP-40 vs SDS log2 ratios) (log2 ratio difference); higher = more soluble in mitosis.
The test system of series [3] is HeLa Kyoto. Put plainly: melting temperature (median over replicates), in situ; higher = more thermally stable.
For series [4], the system named is HeLa Kyoto. Description: thermal stability score vs G1/S (z-score of summed log2 fold changes over temperatures); higher = more thermally stable than in G1/S.
Where [5] appears, read: cell cycle stage: early G1 (4.5 h after nocodazole release).
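Wherever melting temperature (median over replicates), in situ is given: HeLa Kyoto cells synchronized by double thymidine or nocodazole block, proteins quantified by TMT10plex mass spectrometry, three independent biological replicates.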
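Wherever solubility change mitosis vs G1/S (difference of NP-40 vs SDS log2 ratios) is given: synchronized HeLa Kyoto cells (double thymidine block for G1/S, nocodazole release for mitosis), protein amounts in NP-40 versus SDS lysates quantified by mass spectrometry, three biological replicates.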
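Wherever solubility in G1/S (NP-40 vs SDS abundance) is given: HeLa Kyoto cells arrested at G1/S by double thymidine block, proteins quantified by TMT10plex mass spectrometry in mild NP-40 versus SDS extracts, three biological replicates.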
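Wherever thermal stability score vs G1/S (z-score of summed log2 fold changes over temperatures) is given: synchronized HeLa Kyoto cells, proteins quantified by TMT10plex mass spectrometry, three biological replicates, mitosis taken 0.5 h after nocodazole release, G1/S directly after double thymidine block.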

In the case of “MAVDITLLFRASVKTVKTRNKALGVAVGGGVDGSRDELFRRSPRPKGDFSSRAREVISHIGKLRDFLLEHRKDYINAYSHTMSEYGRMTDTERDQIDQDAQIFMRTCSEAIQQLRTEAHKEIHSQQVKEHRTAVLDFIEDYLKRVCKLYSEQRAIRVKRVVDKKRLSKLEPEPNTKTRESTSSEKVSQSPSKDSEENPATEERPEKILAETQPELGTWGDGKGEDELSPEEIQMFEQENQRLIGEMNSLFDEVRQIEGRVVEISRLQEIFTEKVLQQEAEIDSIHQLVVGATENIKEGNEDIREAIKNNAGFRVWILFFLVMCSFSLLFLDWYDS [STX18]”, the “solubility in G1/S (log2)” value in series [1] turned out to be 0.186. Further, the “solubility change mitosis (log2)” value in series [2] was -0.0525. Moreover, the melting temperature in series [3] (cell cycle stage: G1/S) was determined as 50.1 °C; in series [3] (cell cycle stage: mitosis), 50.8 °C. Further, the thermal stability score is 0.0563 in series [4] (setting [5]) and -0.262 in series [4] (cell cycle stage: mitosis).
As for “MAVEELQSIIKRCQILEEQDFKEEDFGLFQLAGQRCIEEGHTDQLLEIIQNEKNKVIIKNMGWNLVGPVVRCLLCKDKEDSKRKVYFLIFDLLVKLCNPKELLLGLLELIEEPSGKQISQSILLLLQPLQTVIQKLHNKAYSIGLALSTLWNQLSLLPVPYSKEQIQMDDYGLCQCCKALIEFTKPFVEEVIDNKENSLENEKLKDELLKFCFKSLKCPLLTAQFFEQSEEGGNDPFRYFASEIIGFLSAIGHPFPKMIFNHGRKKRTWNYLEFEEEENKQLADSMASLAYLVFVQGIHIDQLPMVLSPLYLLQFNMGHIEVFLQRTEESVISKGLELLENSLLRIEDNSLLYQYLEIKSFLTVPQGLVKVMTLCPIETLRKKSLAMLQLYINKLDSQGKYTLFRCLLNTSNHSGVEAFIIQNIKNQIDMSLKRTRNNKWFTGPQLISLLDLVLFLPEGAETDLLQNSDRIMASLNLLRYLVIKDNENDNQTGLWTELGNIENNFLKPLHIGLNMSKAHYEAEIKNSQEAQKSKDLCSITVSGEEIPNMPPEMQLKVLHSALFTFDLIESVLARVEELIEIKTKSTSEENIGIK [GLMN]”, the “solubility in G1/S (log2)” value in series [1] turned out to be 0.0671. Further, the “solubility change mitosis (log2)” value in series [2] was -0.21. For the same sequence, the melting temperature in series [3] (cell cycle stage: G1/S) is 52.2 °C; in series [3] (cell cycle stage: mitosis) it was 51.3 °C. Moreover, the thermal stability score in series [4] (setting [5]) was determined as 0.45; in series [4] (cell cycle stage: mitosis), 0.785.
Regarding “MAVLLLLLRALRRGPGPGPRPLWGPGPAWSPGFPARPGRGRPYMASRPPGDLAEAGGRALQSLQLRLLTPTFEGINGLLLKQHLVQNPVRLWQLLGGTFYFNTSRLKQKNKEKDKSKGKAPEEDEEERRRRERDDQMYRERLRTLLVIAVVMSLLNALSTSGGSISWNDFVHEMLAKGEVQRVQVVPESDVVEVYLHPGAVVFGRPRLALMYRMQVANIDKFEEKLRAAEDELNIEAKDRIPVSYKRTGFFGNALYSVGMTAVGLAILWYVFRLAGMTGREGGFSAFNQLKMARFTIVDGKMGKGVSFKDVAGMHEAKLEVREFVDYLKSPERFLQLGAKVPKGALLLGPPGCGKTLLAKAVATEAQVPFLAMAGPEFVEVIGGLGAARVRSLFKEARARAPCIVYIDEIDAVGKKRSTTMSGFSNTEEEQTLNQLLVEMDGMGTTDHVIVLASTNRADILDGALMRPGRLDRHVFIDLPTLQERREIFEQHLKSLKLTQSSTFYSQRLAELTPGFSGADIANICNEAALHAAREGHTSVHTLNFEYAVERVLAGTAKKSKILSKEEQKVVAFHESGHALVGWMLEHTEAVMKVSITPRTNAALGFAQMLPRDQHLFTKEQLFERMCMALGGRASEALSFNEVTSGAQDDLRKVTRIAYSMVKQFGMAPGIGPISFPEAQEGLMGIGRRPFSQGLQQMMDHEARLLVAKAYRHTEKVLQDNLDKLQALANALLEKEVINYEDIEALIGPPPHGPKKMIAPQRWIDAQREKQDLGEEETEETQQPPLGGEEPTWPK [SPG7]”, in series [1], the “solubility in G1/S (log2)” value was found to be 0.0611. Besides, in series [2], the “solubility change mitosis (log2)” value was -0.102. Also, the melting temperature in series [3] (cell cycle stage: G1/S) came out at 51.2 °C; in series [3] (cell cycle stage: mitosis), 51.9 °C. The thermal stability score is 2.94 in series [4] (setting [5]) and 1.55 in series [4] (cell cycle stage: mitosis).
“MAVRSLWAGRLRVQRLLAWSAAWESKGWPLPFSTATQRTAGEDCRSEDPPDELGPPLAERALRVKAVKLEKEVQDLTVRYQRAIADCENIRRRTQRCVEDAKIFGIQSFCKDLVEVADILEKTTECISEESEPEDQKLTLEKVFRGLLLLEAKLKSVFAKHGLEKLTPIGDKYDPHEHELICHVPAGVGVQPGTVALVRQDGYKLHGRTIRLARVEVAVESQRRL [GRPEL2]”: the “solubility in G1/S (log2)” value in series [1] came out at 0.335. Also, the “solubility change mitosis (log2)” value in series [2] is -0.104. In addition, the melting temperature in series [3] (cell cycle stage: mitosis) was 48.4 °C. In addition, the thermal stability score in series [4] (setting [5]) was -0.696; in series [4] (cell cycle stage: mitosis) it was 2.19.
For the sequence “MAVTALAARTWLGVWGVRTMQARGFGSDQSENVDRGAGSIREAGGAFGKREQAEEERYFRAQSREQLAALKKHHEEEIVHHKKEIERLQKEIERHKQKIKMLKHDD [ATPIF1]”, the “solubility in G1/S (log2)” value in series [1] amounted to 0.903. Moreover, the “solubility change mitosis (log2)” value in series [2] came to 0.408. Also, the melting temperature in series [3] (cell cycle stage: G1/S) turned out to be 56.8 °C; in series [3] (cell cycle stage: mitosis) it was 56.9 °C. For the same sequence, the thermal stability score is 3.16 in series [4] (setting [5]) and -2.08 in series [4] (cell cycle stage: mitosis).
Consider “MAVTGWLESLRTAQKTALLQDGRRKVHYLFPDGKEMAEEYDEKTSELLVRKWRVKSALGAMGQWQLEVGDPAPLGAGNLGPELIKESNANPIFMRKDTKMSFQWRIRNLPYPKDVYSVSVDQKERCIIVRTTNKKYYKKFSIPDLDRHQLPLDDALLSFAHANCTLIISYQKPKEVVVAESELQKELKKVKTAHSNDGDCKTQ [DPCD]”, for which the “solubility in G1/S (log2)” value in series [1] is 0.223. For the same sequence, the “solubility change mitosis (log2)” value in series [2] is -0.0049. The values for the melting temperature in series [3] (cell cycle stage: G1/S) and in series [3] (cell cycle stage: mitosis) were 49.9 °C and 49 °C, respectively. Further, the thermal stability score stood at 0.4 in series [4] (setting [5]) and 0.716 in series [4] (cell cycle stage: mitosis).
